Test results taken from patent US20230132049A1 (Genmab, published 2023).

Key:
complement protein C1q = target: T1, complement protein C1q (human, UniProt P02745 23-245; P02746 28-253; P02747 29-245); experiment: flow cytometry with FITC anti-C1q: C1q from 20% human serum on activated human CD8+ T cells incubated with the antibody
T1 construct: Native C1q in 20% human serum
Description: Activated CD8⁺ T cells were seeded in a round-bottom 96-well plate (30,000 cells/well), pelleted, and resuspended in 30 μL assay medium (RPMI-1640 with 25 mM HEPES and L-glutamine, supplemented with 0.1% [w/v] bovine serum albumin fraction V (BSA; Roche, cat. no. 10735086001) and penicillin/streptomycin).
Human serum (20 μL/well; Sanquin, lot 20L15-02), as a source of C1q, was added to a final concentration of 20%. Cells were incubated on ice for 45 min, followed by two washes with cold GMB FACS buffer and incubation with 50 μL fluorescein isothiocyanate (FITC)-conjugated rabbit anti-human C1q (final concentration of 20 μg/mL (DAKO, cat no. F0254); diluted 1:75 in GMB FACS buffer) in the presence or absence of allophycocyanin-conjugated mouse-anti-CD8 (BD Biosciences, cat. no. 555369; diluted 1:50 in GMB FACS buffer) in the dark at 4° C. for 30 min. […] C1q binding to viable cells (as identified by DAPI exclusion) was analyzed by flow cytometry on an iQue3 Screener (Intellicyt Corporation). Data were analyzed using iQue software (Intellicyt Corporation, ForeCyt® Enterprise Client Edition 6.2 [R3], Version 6.2.652).

human CD30 [1] = target: T2, human CD30 (human, UniProt P28908 19-595); experiment: cell-based or functional assay
T2 sequence: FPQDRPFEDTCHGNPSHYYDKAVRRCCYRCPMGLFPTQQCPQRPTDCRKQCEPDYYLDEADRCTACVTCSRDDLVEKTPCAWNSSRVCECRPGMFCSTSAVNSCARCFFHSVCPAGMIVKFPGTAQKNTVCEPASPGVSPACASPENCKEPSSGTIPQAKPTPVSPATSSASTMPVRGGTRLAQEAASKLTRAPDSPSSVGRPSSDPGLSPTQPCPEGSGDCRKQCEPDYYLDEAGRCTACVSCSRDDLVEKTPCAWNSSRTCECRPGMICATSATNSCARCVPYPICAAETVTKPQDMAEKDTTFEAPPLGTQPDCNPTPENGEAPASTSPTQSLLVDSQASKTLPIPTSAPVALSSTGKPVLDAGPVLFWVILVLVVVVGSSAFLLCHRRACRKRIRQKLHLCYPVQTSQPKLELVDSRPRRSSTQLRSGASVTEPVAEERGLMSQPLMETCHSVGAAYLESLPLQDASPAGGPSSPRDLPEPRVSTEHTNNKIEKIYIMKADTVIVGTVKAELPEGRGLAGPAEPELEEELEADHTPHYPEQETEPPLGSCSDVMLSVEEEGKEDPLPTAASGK

human CD30 [2] = target: T2, human CD30; experiment: flow cytometry on HEK293 cells transfected with human CD30
human CD30 [3] = target: T2, human CD30; experiment: cell-based or functional assay; remark: listed apart in the source

T1 sequence (P02745 23-245 limits assumed, chain 1 of 3): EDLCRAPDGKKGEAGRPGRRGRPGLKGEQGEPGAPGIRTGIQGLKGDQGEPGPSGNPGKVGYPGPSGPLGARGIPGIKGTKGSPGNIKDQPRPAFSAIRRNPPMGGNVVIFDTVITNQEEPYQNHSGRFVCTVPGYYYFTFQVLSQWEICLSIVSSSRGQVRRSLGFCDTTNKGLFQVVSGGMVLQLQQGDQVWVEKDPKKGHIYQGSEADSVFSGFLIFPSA
T1 sequence (P02746 28-253 limits assumed, chain 2 of 3): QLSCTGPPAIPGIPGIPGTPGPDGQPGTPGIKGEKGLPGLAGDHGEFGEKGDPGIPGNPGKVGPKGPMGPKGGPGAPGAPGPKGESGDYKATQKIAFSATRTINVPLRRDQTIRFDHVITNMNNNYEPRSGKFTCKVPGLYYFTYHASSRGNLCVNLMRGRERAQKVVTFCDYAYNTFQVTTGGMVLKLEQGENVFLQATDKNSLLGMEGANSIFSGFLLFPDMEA
T1 sequence (P02747 29-245 limits assumed, chain 3 of 3): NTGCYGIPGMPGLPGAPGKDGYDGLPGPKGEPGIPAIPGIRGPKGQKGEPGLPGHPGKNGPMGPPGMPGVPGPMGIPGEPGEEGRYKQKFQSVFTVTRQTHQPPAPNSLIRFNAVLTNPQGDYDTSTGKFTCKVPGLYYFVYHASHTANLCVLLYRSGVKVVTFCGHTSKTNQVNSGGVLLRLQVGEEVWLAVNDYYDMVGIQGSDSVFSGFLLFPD

binding result (complement protein C1q): no binding (tested: 30 µg/mL)
EC50 (read off the curve) (human CD30 [2]): ~0.09 µg/mL
B1: bsG1-huCD3-FEAL×CD30-MDX060-FERR (bispecific antibody, human IgG1, kappa, lambda)
heavy 1: not shown
light 1: not shown
heavy 2: QVQLQQWGAGLLKPSETLSLTCAVYGGSFSAYYWSWIRQPPGKGLEWIGDINHGGGTNYNPSLKSRVTISVDTSKNQFSLKLNSVTAADTAVYYCASLTAYWGQGSLVTVSSASTKGPSVFPLAPSSKSTSGGTAALGCLVKDYFPEPVTVSWNSGALTSGVHTFPAVLQSSGLYSLSSVVTVPSSSLGTQTYICNVNHKPSNTKVDKRVEPKSCDKTHTCPPCPAPEFERGPSVFLFPPKPKDTLMISRTPEVTCVVVDVSHEDPEVKFNWYVDGVEVHNAKTKPREEQYNSTYRVVSVLTVLHQDWLNGKEYKCKVSNKALPAPIEKTISKAKGQPREPQVYTLPPSREEMTKNQVSLTCLVKGFYPSDIAVEWESNGQPENNYKTTPPVLDSDGSFFLYSRLTVDKSRWQQGNVFSCSVMHEALHNHYTQKSLSLSPG
light 2: DIQMTQSPTSLSASVGDRVTITCRASQGISSWLTWYQQKPEKAPKSLIYAASSLQSGVPSRFSGSGSGTDFTLTISSLQPEDFATYYCQQYDSYPITFGQGTRLEIKRTVAAPSVFIFPPSDEQLKSGTASVVCLLNNFYPREAKVQWKVDNALQSGNSQESVTEQDSKDSTYSLSSTLTLSKADYEKHKVYACEVTHQGLSSPVTKSFNRGEC
notes: one arm of each; also called bsG1-huCD3×CD30-MDX060
cytotoxicity IC50 (µg/mL) average, Karpas-299 cells (human CD30 [1]): 0.029 µg/mL
cytotoxicity maximum lysis (%) average, Karpas-299 cells (human CD30 [1]): 52.3%
Cytotoxicity, Average IC50 (µg/mL), KI-JK cells (human CD30 [3]): 0.0015 µg/mL
Cytotoxicity, Average IC50 (µg/mL), L-428 cells (human CD30 [3]): 0.002 µg/mL
